Test results as given in patent US20250179183A1 (BIOMOLECULAR, published 2025).
Like-named read-outs stand apart in the source and are kept apart here.

B1: HB2198 (bispecific antibody, human IgG1, kappa)
heavy 1: QVQLVQSGGGVVQPGRSLRLSCAASGVSLPDYGVSWVRKAPGKGLEWVAVIWGSETTYYNSALKSRFTISRDNSKNTLYLQMSSLRAEDTAVYYCAKHYYYGGSFAMDYWGQGTLVTVSSASTKGPSVFPLAPSSKSTSGGTAALGCLVKDYFPEPVTVSWNSGALTSGVHTFPAVLQSSGLYSLESVVTVPSSSLGTQTYICNVNHKPSNTKVDKKVEPKSCTDWSPYADQSIKVRISLKSALGDKAYEWNDNEMYLFRSSVAYAMRQYFLKVKNQMILFGEEDVRVANLKPRISFNFFVTAPKNVSDIIPRTEVEKAIRMSRSRINDAFRLNDNSLEFLGIQPTLGPPNQPPVSTSTSPTRSMAPGAVHLPQPVSTRDKTHTCPPCPAPELLGGPDVFLFPPKPKDTLMISRTPEVTCVVVDVSHEDPEVKFNWYVDGVEVHNAKTKPREEQYNSTYRVVSVLTVLHQDWLNGKEYKCKVSNKALPAPEEKTISKAKGQPREPQVCTLPPSRDELTKNQVSLSCAVKGFYPSDIAVEWESNGQPENNYKTTPPVLDSDGSFFLVSKLTVDKSRWQQGNVFSCSVMHEALHNRFTQKSLSLSPG
heavy 2: QIVLSQSPAILSASPGEKVTMTCRASSSVSYIHWFQKKPGSSPKPWIYATSNLASGVPVRFSGSGSGTSYSLTISRVEAEDAATYYCQQWTSNPPTFGGGTKVEIKSSASTKGPSVFPLAPSSKSTSGGTAALGCLVKDYFPEPVTVSWNSGALTSGVHTFPAVLQSSGLYSLKSVVTVPSSSLGTQTYICNVNHKPSNTKVDKKVEPKSCDKTHTCPPCPAPELLGGPDVFLFPPKPKDTLMISRTPEVTCVVVDVSHEDPEVKFNWYVDGVEVHNAKTKPREEQYNSTYRVVSVLTVLHQDWLNGKEYKCKVSNKALPAPEEKTISKAKGQPREPQVYTLPPCRDELTKNQVSLWCLVKGFYPSDIAVEWESNGQPENNYKTTPPVLDSDGSFFLYSKLTVDKSRWQQGNVFSCSVMHEALHNHYTQKSLSLSPG
light 1: DIQMTQSPSSLSASVGDRVTITCRASQDISKYLNWYQEKPGKAIKLLIYHTSRLHSGVPSRFSGSGSGTDFTLTISSLQPEDFATYYCQQGATLPYTFGPGTKLEIKRTVAAPSVFIFPPSDEQLKSGTASVKCLLNNFYPREAKVQWKVDNALQSGNSQESVTEQDSKDSTYSLSSTLTLSKADYEKHKVYACEVTHQGLSSPVTKSFNRGEC
light 2: QVQLQQPGAELVKPGASVKMSCKASGYTFTSYNMHWVKETPGRGLEWIGAIYPGNGDTSYNQKFKGKATLTADKSSSTAYMQLSSLTSEDSAVYYCARSTYYGGDWYFNVWGAGTLVTVSSASVAAPSVFIFPPSDEQLKSGTASVECLLNNFYPREAKVQWKVDNALQSGNSQESVTEQDSKDSTYSLSSTLTLSKADYEKHKVYACEVTHQGLSSPVTKSFNRGEC
B2: Tafasitamab (antibody, human IgG1, kappa)
heavy: EVQLVESGGGLVKPGGSLKLSCAASGYTFTSYVMHWVRQAPGKGLEWIGYINPYNDGTKYNEKFQGRVTISSDKSISTAYMELSSLRSEDTAMYYCARGTYYYGTRVFDYWGQGTLVTVSSASTKGPSVFPLAPSSKSTSGGTAALGCLVKDYFPEPVTVSWNSGALTSGVHTFPAVLQSSGLYSLSSVVTVPSSSLGTQTYICNVNHKPSNTKVDKKVEPKSCDKTHTCPPCPAPELLGGPDVFLFPPKPKDTLMISRTPEVTCVVVDVSHEDPEVQFNWYVDGVEVHNAKTKPREEQFNSTFRVVSVLTVVHQDWLNGKEYKCKVSNKALPAPEEKTISKTKGQPREPQVYTLPPSREEMTKNQVSLTCLVKGFYPSDIAVEWESNGQPENNYKTTPPMLDSDGSFFLYSKLTVDKSRWQQGNVFSCSVMHEALHNHYTQKSLSLSPG
light: DIVMTQSPATLSLSPGERATLSCRSSKSLQNVNGNTYLYWFQQKPGQSPQLLIYRMSNLNSGVPDRFSGSGSGTEFTLTISSLEPEDFAVYYCMQHLEYPITFGAGTKLEIKRTVAAPSVFIFPPSDEQLKSGTASVVCLLNNFYPREAKVQWKVDNALQSGNSQESVTEQDSKDSTYSLSSTLTLSKADYEKHKVYACEVTHQGLSSPVTKSFNRGEC
B3: Rituximab (antibody)
VH: not shown
VL: QIVLSQSPAILSASPGEKVTMTCRASSSVSYIHWFQQKPGSSPKPWIYATSNLASGVPVRFSGSGSGTSYSLTISRVEAEDAATYYCQQWTSNPPTFGGGTKLEIKRTVAAPSVFIFPPSDEQLKSGTASVVCLLNNFYPREAKVQWKVDNALQSGNSQESVTEQDSKDSTYSLSSTLTLSKADYEKHKVYACEVTHQGLSSPVTKSFNRGEC

How the values were obtained:
cynomolgus monkey CD32a [1] = target: cynomolgus monkey CD32a (cynomolgus monkey)
cynomolgus monkey CD64 [2] = target: T1, cynomolgus monkey CD64 (cynomolgus monkey, UniProt A0A2K5U901 33-309)
cynomolgus monkey CD32b [3] = target: cynomolgus monkey CD32b (cynomolgus monkey)
cynomolgus monkey CD32a [4] = target: cynomolgus monkey CD32a (cynomolgus monkey); remark: listed apart in the source
cynomolgus monkey CD64 [5] = target: T1, cynomolgus monkey CD64; remark: listed apart in the source
cynomolgus monkey CD32b [6] = target: cynomolgus monkey CD32b (cynomolgus monkey); remark: listed apart in the source

T1 sequence (A0A2K5U901 entry or part of it limits assumed, form in doubt): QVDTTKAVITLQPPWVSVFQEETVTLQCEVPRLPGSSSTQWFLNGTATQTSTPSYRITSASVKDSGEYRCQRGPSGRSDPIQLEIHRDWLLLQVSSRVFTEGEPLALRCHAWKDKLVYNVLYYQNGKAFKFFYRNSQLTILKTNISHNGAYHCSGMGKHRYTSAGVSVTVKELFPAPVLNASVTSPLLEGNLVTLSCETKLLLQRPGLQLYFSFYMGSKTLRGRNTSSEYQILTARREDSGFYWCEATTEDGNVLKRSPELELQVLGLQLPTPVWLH

Binder | Kd (cynomolgus monkey CD32a [1]) [nM] | Kd (cynomolgus monkey CD64 [2]) [nM] | Kd (cynomolgus monkey CD32b [3]) [nM] | Kd (cynomolgus monkey CD32a [4]) [nM] | Kd (cynomolgus monkey CD64 [5]) [nM] | Kd (cynomolgus monkey CD32b [6]) [nM]
B1 | 4 | < 0.02 | 3.4 | 305 | < 0.02 | 218
B2 | 181 | 1.8 | 152 | 76.2 | < 0.02 | 53
B3 | – | – | – | – | < 0.02 | –
